Molecular target: SARS-CoV-2RBD-hFc蛋白 (SARS-CoV-2; human)

B1: R14纳米抗体 (alpaca-derived nanobody R14, with C-terminal hexa-His tag) (VHH)
VHH: QVQLQESGGGLVQPGGSLRLSCAVSGFTLDYYAIGWFRQAPGKEREGVSCISSSDGSTSYADSVKGRFTISRDNAKNTVYLQMNSLKPEDTALYYCAATPATYYSGRYYYQCPAGGMDYWGQGTQVTVSS
B1 showed a Kd of less than 100 pM.
